Reference: US20220023420A1 (PRECIGEN, published 2022)
Numbering of substitutions follows the chain as printed. Names may count otherwise.

Legend:
TGF-β3 = target: T1, TGF-β3 (UniProt P10600 301-412); assay: SPR (Biacore 3000), fusion protein immobilized on CM5, TGF-β injected
T1 sequence (looked up): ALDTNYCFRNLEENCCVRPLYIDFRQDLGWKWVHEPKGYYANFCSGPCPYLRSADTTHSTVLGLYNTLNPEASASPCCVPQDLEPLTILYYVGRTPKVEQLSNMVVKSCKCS
Experimental: (§1) Surface plasma resonance (SPR) analysis was performed using Biacore3000, CM5 chip, an amine-coupling kit, 10×HBS-P running buffer and Glycine for regeneration (GE Healthcare). […] Dissociation was allowed to proceed followed by a pulse of 10 mM Glycine (pH 1.5) for regeneration of the chip surface.

TGF-β1 [1] = target: T2, TGF-β1 (UniProt P01137 279-390); assay: as above
T2 construct: also called TGF-b1
T2 sequence (P01137 279-390 limits assumed): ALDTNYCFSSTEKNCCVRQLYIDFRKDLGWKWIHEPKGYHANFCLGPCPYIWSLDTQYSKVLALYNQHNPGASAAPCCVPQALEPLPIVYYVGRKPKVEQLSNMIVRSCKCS
Experimental: as §1

TGF-β2 = target: T3, TGF-β2 (UniProt P61812 303-414); assay: as above
T3 sequence (looked up): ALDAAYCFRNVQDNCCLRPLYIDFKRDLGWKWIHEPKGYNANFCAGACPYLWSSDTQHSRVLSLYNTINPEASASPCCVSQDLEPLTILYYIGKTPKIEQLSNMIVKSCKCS
Experimental: as §1

TGF-β1 [2] = target: T2, TGF-β1; assay: cell-based or functional assay
TGF-β1 [3] = target: T2, TGF-β1; assay: cell-based or functional assay; remark: listed apart in the source
PD-1 Fc fusion protein = target: T4, PD-1 Fc fusion protein (UniProt Q15116 25-167, limits assumed); assay: SPR (Biacore), PD-1-Fc antigen on CM5, 1:1 Langmuir with mass transfer
T4 construct: also called PD-1-Fc antigen; PD-1 fused to human Fc region; not shown: human Fc region
T4 sequence (Q15116 25-167 limits assumed): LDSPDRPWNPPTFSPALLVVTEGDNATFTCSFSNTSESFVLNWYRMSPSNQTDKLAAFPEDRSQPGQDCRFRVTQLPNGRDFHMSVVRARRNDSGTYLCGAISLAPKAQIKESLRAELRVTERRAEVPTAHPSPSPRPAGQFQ
Experimental: PD-1-Fc antigen and reference antigen was immobilized on Biacore CM5 surface. […] Kinetics data was evaluated for 1:1 model: Langmuir with mass transfer.

B1: Anti-PD-1(VH6-VL5) IgG4-TGFβRII (other)
heavy: QVQLVESGGGVVQPGRSLRLDCKASGITFSNSGMHWVRQAPGKGLEWVAVIWYDGSKRYYADSVKGRFTISRDNSKNTLFLQMNSLRAEDTAVYYCATNDDYWGQGTLVTVSSASTKGPSVFPLAPCSRSTSESTAALGCLVKDYFPEPVTVSWNSGALTSGVHTFPAVLQSSGLYSLSSVVTVPSSSLGTKTYTCNVDHKPSNTKVDKRVESKYGPPCPSCPAPEFLGGPSVFLFPPKPKDTLMISRTPEVTCVVVDVSQEDPEVQFNWYVDGVEVHNAKTKPREEQFNSTYRVVSVLTVLHQDWLNGKEYKCKVSNKGLPSSIEKTISKAKGQPREPQVYTLPPSQEEMTKNQVSLTCLVKGFYPSDIAVEWESNGQPENNYKTTPPVLDSDGSFFLYSRLTVDKSRWQEGNVFSCSVMHEALHNHYTQKSLSLSPGKGGGGSGGGGSIPPHVQKSVNNDMIVTDNNGAVKFPQLCKFCDVRFSTCDNQKSCMSNCSITSICEKPQEVCVAVWRKNDENITLETVCHDPKLPYHDFILEDAASPKCIMKEKKKPGETFFMCSCSSDECNDNIIFSEEYNTSNPD
light: not shown
notes: also called anti-PD-1 IgG4 antibody (VH6-VL5)-TGFβRII fusion protein; VH6-IgG4(wt)-linker-ECD with VL5
Kd (TGF-β3): 2.19 pM | Kd (TGF-β1 [1]): 5.22 pM | Kd (TGF-β2): 859 pM

B2: Anti-PD-1 (VL5-VH6).IgG4 (antibody, V domains shown)
VH: QVQLVESGGGVVQPGRSLRLDCKASGITFSNSGMHWVRQAPGKGLEWVAVIWYDGSKRYYADSVKGRFTISRDNSKNTLFLQMNSLRAEDTAVYYCATNDDYWGQGTLVTVSS
VL: EIVLTQSPATLSLSPGERATLSCRASQSVSSYLAWYQQKPGQAPRLLIYDASNRATGIPARFSGSGSGTDFTLTISSLEPEDFAVYYCQQSSNWPRTFGQGTKVEIK
IC50-inhibition of TGF-β1 induced reporter gene activity (HEK-Blue TGF-β cells, SEAP) (TGF-β1 [2]): 9 pM

B3: Anti-PD-1 (VL5-VH6).IgG4-Linker7 -TGFbRII (other)
heavy (part 1 of 2): B2 VH
heavy (part 2 of 2): DPGSGSVPLGSGSNPGSIPPHVQKSVNNDMIVTDNNGAVKFPQLCKFCDVRFSTCDNQKSCMSNCSITSICEKPQEVCVAVWRKNDENITLETVCHDPKLPYHDFILEDAASPKCIMKEKKKPGETFFMCSCSSDECNDNIIFSEEYNTSNPD
VL: B2 VL
IC50, TGF-β1 neutralization activity (HEK-Blue TGF-β reporter cells) (TGF-β1 [3]): 1.1 pM

B4: Anti-PD-1 (VL5-VH6).IgG4-Linker8 -TGFbRII (other)
heavy (part 1 of 2): B2 VH
heavy (part 2 of 2): DPGSGGSVPLGSGGSNPGSIPPHVQKSVNNDMIVTDNNGAVKFPQLCKFCDVRFSTCDNQKSCMSNCSITSICEKPQEVCVAVWRKNDENITLETVCHDPKLPYHDFILEDAASPKCIMKEKKKPGETFFMCSCSSDECNDNIIFSEEYNTSNPD
VL: B2 VL
IC50, TGF-β1 neutralization activity (HEK-Blue TGF-β reporter cells) (TGF-β1 [3]): 1.2 pM

B5: Anti-PD-1 (nVL1-nVH3).IgG4-TGFbRII (other)
heavy (part 1 of 2): B2 VH with D100N
heavy (part 2 of 2): GGGGSGGGGSIPPHVQKSVNNDMIVTDNNGAVKFPQLCKFCDVRFSTCDNQKSCMSNCSITSICEKPQEVCVAVWRKNDENITLETVCHDPKLPYHDFILEDAASPKCIMKEKKKPGETFFMCSCSSDECNDNIIFSEEYNTSNPD
VL: B2 VL with L4M, S91Y, S92N
IC50-inhibition of TGF-β1 induced reporter gene activity (HEK-Blue TGF-β cells, SEAP) (TGF-β1 [2]): 10.7 pM

B6: Anti-PD-1 (VL5-VH6).IgG4-Linker12 -TGFbRII (other)
heavy (part 1 of 2): B2 VH
heavy (part 2 of 2): DPVLEREDKVTTSKNPGSIPPHVQKSVNNDMIVTDNNGAVKFPQLCKFCDVRFSTCDNQKSCMSNCSITSICEKPQEVCVAVWRKNDENITLETVCHDPKLPYHDFILEDAASPKCIMKEKKKPGETFFMCSCSSDECNDNIIFSEEYNTSNPD
VL: B2 VL
IC50, TGF-β1 neutralization activity (HEK-Blue TGF-β reporter cells) (TGF-β1 [3]): 2.7 pM

B7: Anti-PD-1 (VL5-VH6).IgG4-Linker10 -TGFbRII (other)
heavy (part 1 of 2): B2 VH
heavy (part 2 of 2): DPGVLEREDVPTTSYPNPGSIPPHVQKSVNNDMIVTDNNGAVKFPQLCKFCDVRFSTCDNQKSCMSNCSITSICEKPQEVCVAVWRKNDENITLETVCHDPKLPYHDFILEDAASPKCIMKEKKKPGETFFMCSCSSDECNDNIIFSEEYNTSNPD
VL: B2 VL
IC50, TGF-β1 neutralization activity (HEK-Blue TGF-β reporter cells) (TGF-β1 [3]): 1.9 pM

B8: Anti-PD-1 (VL5-VH6).IgG4-Linker 2 -TGFbRII (other)
heavy (part 1 of 2): B2 VH
heavy (part 2 of 2): GGGGSGGGSIPPHVQKSVNNDMIVTDNNGAVKFPQLCKFCDVRFSTCDNQKSCMSNCSITSICEKPQEVCVAVWRKNDENITLETVCHDPKLPYHDFILEDAASPKCIMKEKKKPGETFFMCSCSSDECNDNIIFSEEYNTSNPD
VL: B2 VL
IC50, TGF-β1 neutralization activity (HEK-Blue TGF-β reporter cells) (TGF-β1 [3]): 1.2 pM

B9: Anti-PD-1 (nVL1-nVH3).IgG4 (antibody, V domains shown)
VH: B2 VH with D100N
VL: B2 VL with L4M, S91Y, S92N
notes: IgG4
Kd (PD-1 Fc fusion protein): 14.8 pM

B10: Anti-PD-1 (nVL1-nVH8).IgG4-TGFbRII (other)
heavy (part 1 of 2): EVQLVQSGGGVVQPGRSLRLSCAASGFTFSSYGMHWVRQAPGKGLEWVAVIWYDGSNKYYADSVKGRFTISRDNSKNTLYLQMNSLRAEDTAVYYCATNNDYWGQGTLVTVSS
heavy (part 2 of 2): B5 heavy (part 2 of 2)
VL: B2 VL with L4M, S91Y, S92N
IC50-inhibition of TGF-β1 induced reporter gene activity (HEK-Blue TGF-β cells, SEAP) (TGF-β1 [2]): 54.5 pM

B11: Anti-PD-1 (nVL1-nVH7).IgG4-TGFbRII (other)
heavy (part 1 of 2): B2 VH with I27F, D100N
heavy (part 2 of 2): B5 heavy (part 2 of 2)
VL: B2 VL with L4M, S91Y, S92N
IC50-inhibition of TGF-β1 induced reporter gene activity (HEK-Blue TGF-β cells, SEAP) (TGF-β1 [2]): 15.1 pM

B12: Anti-PD-1 (nVL1-nVH3).IgG4(S108P) (antibody, V domains shown)
VH: B2 VH with D100N
VL: B2 VL with L4M, S91Y, S92N
notes: IgG4 with S108P
Kd (PD-1 Fc fusion protein): 14.1 pM

B13: Anti-PD-1(VH7-VL6) IgG4-TGFβRII (other)
heavy: QVQLVQSGVEVKKPGASVKVSCKASGYTFTNYYMYWVRQAPGQGLEWMGGINPSNGGTNFNEKFKNRVTLTTDSSTTTAYMELKSLQFDDTAVYYCARRDYRFDMGFDYWGQGTTVTVSSASTKGPSVFPLAPCSRSTSESTAALGCLVKDYFPEPVTVSWNSGALTSGVHTFPAVLQSSGLYSLSSVVTVPSSSLGTKTYTCNVDHKPSNTKVDKRVESKYGPPCPSCPAPEFLGGPSVFLFPPKPKDTLMISRTPEVTCVVVDVSQEDPEVQFNWYVDGVEVHNAKTKPREEQFNSTYRVVSVLTVLHQDWLNGKEYKCKVSNKGLPSSIEKTISKAKGQPREPQVYTLPPSQEEMTKNQVSLTCLVKGFYPSDIAVEWESNGQPENNYKTTPPVLDSDGSFFLYSRLTVDKSRWQEGNVFSCSVMHEALHNHYTQKSLSLSPGKGGGGSGGGGSIPPHVQKSVNNDMIVTDNNGAVKFPQLCKFCDVRFSTCDNQKSCMSNCSITSICEKPQEVCVAVWRKNDENITLETVCHDPKLPYHDFILEDAASPKCIMKEKKKPGETFFMCSCSSDECNDNIIFSEEYNTSNPD
light: EIVLTQSPATLSLSPGERATLSCRASKGVSTSGYSYLHWYQQKPGQAPRLLIYLASYLESGVPARFSGSGSGTDFTLTISSLEPEDFAVYYCQHSRDLPLTFGGGTKVEIKRTVAAPSVFIFPPSDEQLKSGTASVVCLLNNFYPREAKVQWKVDNALQSGNSQESVTEQDSKDSTYSLSSTLTLSKADYEKHKVYACEVTHQGLSSPVTKSFNRGEC
IC50-inhibition of TGF-β1 induced reporter gene activity (HEK-Blue TGF-β cells, SEAP) (TGF-β1 [2]): 5.6 pM
